Read-outs that look alike come from different tables or passages of the source.
Experiments:
[1] = molecular target: T1, TGF-β3 (UniProt P10600)
T1 sequence (looked up): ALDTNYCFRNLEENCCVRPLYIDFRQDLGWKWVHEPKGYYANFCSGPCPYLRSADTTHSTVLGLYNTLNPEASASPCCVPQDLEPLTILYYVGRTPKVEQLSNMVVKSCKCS

[2] = molecular target: TGF-β1 (UniProt P01137)
[3] = molecular target: T1, TGF-β3; remark: listed apart in the source
[4] = molecular target: T2, TGF-β2 (UniProt P61812)
T2 sequence (looked up): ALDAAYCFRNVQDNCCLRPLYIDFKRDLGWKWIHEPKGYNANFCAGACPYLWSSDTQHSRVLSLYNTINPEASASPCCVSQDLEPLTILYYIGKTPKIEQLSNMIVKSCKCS

[5] = molecular target: TGF-β1 (UniProt P01137); remark: listed apart in the source
[6] = molecular target: T2, TGF-β2; remark: listed apart in the source
[7] = molecular target: TGF-β1 (UniProt P01137); test: SPR; cycle 10, TGF-B1
[8] = molecular target: T2, TGF-β2; test: SPR; cycle 10, TGF-B2
[9] = molecular target: T1, TGF-β3; test: SPR; cycle 10, TGF-B3
[10] = molecular target: TGF-β1 (UniProt P01137); test: SPR; cycle 12, TGF-B1
[11] = molecular target: T2, TGF-β2; test: SPR; cycle 12, TGF-B2
[12] = molecular target: T1, TGF-β3; test: SPR; cycle 12, TGF-B3
[13] = molecular target: TGF-β1 (UniProt P01137); test: SPR; cycle 14, TGF-B1
[14] = molecular target: T2, TGF-β2; test: SPR; cycle 14, TGF-B2
[15] = molecular target: T1, TGF-β3; test: SPR; cycle 14, TGF-B3
[16] = molecular target: TGF-β1 (UniProt P01137); test: cell-based or functional assay
[17] = molecular target: T2, TGF-β2; test: cell-based or functional assay
[18] = molecular target: T1, TGF-β3; test: cell-based or functional assay
[19] = molecular target: TGF-β1 (UniProt P01137); test: cell-based or functional assay; set-up: unit not given beside the values
[20] = molecular target: T2, TGF-β2; test: cell-based or functional assay; set-up: unit not given beside the values
[21] = molecular target: T1, TGF-β3; test: cell-based or functional assay; set-up: unit not given beside the values
[22] = molecular target: TGF-β1 (UniProt P01137); test: SPR; average of cycles 10, 12, 14, TGF-B1
[23] = molecular target: T2, TGF-β2; test: SPR; average of cycles 10, 12, 14, TGF-B2
[24] = molecular target: T1, TGF-β3; test: SPR; average of cycles 10, 12, 14, TGF-B3

UniProt P01137, sequence (P01137 279-390 limits assumed): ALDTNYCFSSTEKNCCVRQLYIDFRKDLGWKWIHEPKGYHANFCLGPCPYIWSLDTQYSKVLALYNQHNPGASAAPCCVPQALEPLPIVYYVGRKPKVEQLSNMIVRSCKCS

B1: 1D11 (PCT-001), mouse monoclonal anti-TGF-β antibody (antibody, from another filing, V domains shown)
VH: QVQLQQSGPELVRPGASVKLSCKASGYIFITYWMNWVKQRPGQGLEWIGQIFPASGSTNYNEMFEGKATLTVDTSSSTAYMQLSSLTSEDSAVYYCARGDGNYALDAMDYWGQGTSVTVSS
VL: DIVLTQSPASLAVSLGQRATISCRASESVDSYGNSFMHWYQQKSGQPPKLLIYLASNLESGVPARFSGSGSRTDFTLTIDPVEADDAATYYCQQNNEDPLTFGAGTKLEIK
B1 was tested, and the IC50 (read off the curve) [1] was 0.02 nM, the IC50 (read off the curve) [2] was 0.1 nM and the IC50 (read off the curve) [3] was 0.03 nM. The IC50 (read off the curve) [4] was 0.2 nM, the IC50 (read off the curve) [5] was 0.2 nM and the IC50 (read off the curve) [6] was 0.4 nM. For the same binder, the Kd [7] was 0.102 nM, the koff [7] was 4.23e-05 s⁻¹ and the kon [7] was 416000 M⁻¹ s⁻¹. It also gave a Kd [8] of 0.0832 nM, a koff [8] of 5.17e-05 s⁻¹ and a kon [8] of 621000 M⁻¹ s⁻¹. It also gave a Kd [9] of 0.0108 nM, a koff [9] of 2.9e-06 s⁻¹ and a kon [9] of 268000 M⁻¹ s⁻¹. For the same binder, the Kd [10] was 0.0873 nM, the koff [10] was 4.18e-05 s⁻¹ and the kon [10] was 479000 M⁻¹ s⁻¹. The Kd [11] was 0.082 nM, the koff [11] was 5.54e-05 s⁻¹ and the kon [11] was 675000 M⁻¹ s⁻¹. It also gave a Kd [12] of 0.016 nM, a koff [12] of 5.06e-06 s⁻¹ and a kon [12] of 316000 M⁻¹ s⁻¹. The Kd [13] was 0.0733 nM, the koff [13] was 3.78e-05 s⁻¹ and the kon [13] was 515000 M⁻¹ s⁻¹. It also gave a Kd [14] of 0.0723 nM, a koff [14] of 4.98e-05 s⁻¹ and a kon [14] of 690000 M⁻¹ s⁻¹. It also gave a Kd [15] of 0.00793 nM, a koff [15] of 2.75e-06 s⁻¹ and a kon [15] of 346000 M⁻¹ s⁻¹. It also gave an EC50, TGF-β isoform neutralization [16] of 0.0478 nM, an EC50 for neutralization of TGF-β [16] of 164 picomol/L and an EC50, TGF-β isoform neutralization [17] of 0.591 nM. It also gave an EC50 for neutralization of TGF-β [17] of 382 picomol/L, an EC50, TGF-β isoform neutralization [18] of 0.225 nM and an EC50 for neutralization of TGF-β [18] of 19 picomol/L. The IC50 for neutralization of TGF-β [19] was 0.0722, the IC50 for neutralization of TGF-β [20] was 0.492 and the IC50 for neutralization of TGF-β [21] was 0.0547. For the same binder, the Kd [22] was 0.0873 nM, the koff [22] was 4.06e-05 s⁻¹ and the kon [22] was 470000 M⁻¹ s⁻¹. For the same binder, the Kd [23] was 0.0792 nM, the koff [23] was 5.23e-05 s⁻¹ and the kon [23] was 662000 M⁻¹ s⁻¹. For the same binder, the Kd [24] was 0.0116 nM, the koff [24] was 3.57e-06 s⁻¹ and the kon [24] was 310000 M⁻¹ s⁻¹.

— patent US20190248881A1
